Here are results for two molecules from patent publication US20130034568A1 (UNIVERSITY OF LOUISVILLE RESEARCH FOUNDATION, published 2013).

Experiment [1] addresses C5a receptor (C5aR; CD88), mouse, on peritoneal macrophages (mouse) (UniProt P30993). Briefly: cell-based or functional assay.
The target in experiment [2] is T1, TLR5, mouse, on peritoneal macrophages (mouse, UniProt Q9JLF7 27-859).
T1 construct: whole, on cells; Negative control in FRET; detected with antibody clone 85B152.5; also called Toll-like receptor 5
Kind of experiment: FRET, acceptor photobleaching, labelled antibodies on P. gingivalis-stimulated mouse macrophages. Here is the method: (§1) Upon stimulation for 10 min at 37° C. with P. gingivalis, mouse macrophages were labeled with a mixture of Cy3-conjugated (donor) and Cy5-conjugated (acceptor) antibodies, as indicated in FIG. 4I. In additional experiments shown in FIG. 4I, FITC-labeled P. gingivalis was used as donor and TRITC-labeled receptors served as acceptors. The cells were washed and fixed, and energy transfer between various donor-acceptor pairs was calculated from the increase in donor fluorescence after acceptor photobleaching (REF 9, 14). […] The conjugation of antibodies to Cy3 or Cy5 was performed using kits from Amersham Biosciences.

Experiment [3] has as its target T2, CXC-chemokine receptor 4 (CXCR4), mouse, on peritoneal macrophages (mouse, UniProt P70658 1-359).
T2 construct: whole, on cells
Briefly: FRET, acceptor photobleaching, labelled antibodies on P. gingivalis-challenged mouse macrophages. Here is the method:
as §1

T2 sequence (P70658 whole entry): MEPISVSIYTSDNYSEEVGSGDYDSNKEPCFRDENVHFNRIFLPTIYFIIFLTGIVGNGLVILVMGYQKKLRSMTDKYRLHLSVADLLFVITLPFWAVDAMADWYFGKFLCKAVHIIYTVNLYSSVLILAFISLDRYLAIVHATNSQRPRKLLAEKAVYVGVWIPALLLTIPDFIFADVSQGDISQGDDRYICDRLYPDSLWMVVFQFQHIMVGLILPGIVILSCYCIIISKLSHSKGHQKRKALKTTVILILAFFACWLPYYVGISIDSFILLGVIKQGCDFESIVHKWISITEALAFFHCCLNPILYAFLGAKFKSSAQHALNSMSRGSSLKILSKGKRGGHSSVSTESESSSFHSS
T1 sequence (Q9JLF7 27-859): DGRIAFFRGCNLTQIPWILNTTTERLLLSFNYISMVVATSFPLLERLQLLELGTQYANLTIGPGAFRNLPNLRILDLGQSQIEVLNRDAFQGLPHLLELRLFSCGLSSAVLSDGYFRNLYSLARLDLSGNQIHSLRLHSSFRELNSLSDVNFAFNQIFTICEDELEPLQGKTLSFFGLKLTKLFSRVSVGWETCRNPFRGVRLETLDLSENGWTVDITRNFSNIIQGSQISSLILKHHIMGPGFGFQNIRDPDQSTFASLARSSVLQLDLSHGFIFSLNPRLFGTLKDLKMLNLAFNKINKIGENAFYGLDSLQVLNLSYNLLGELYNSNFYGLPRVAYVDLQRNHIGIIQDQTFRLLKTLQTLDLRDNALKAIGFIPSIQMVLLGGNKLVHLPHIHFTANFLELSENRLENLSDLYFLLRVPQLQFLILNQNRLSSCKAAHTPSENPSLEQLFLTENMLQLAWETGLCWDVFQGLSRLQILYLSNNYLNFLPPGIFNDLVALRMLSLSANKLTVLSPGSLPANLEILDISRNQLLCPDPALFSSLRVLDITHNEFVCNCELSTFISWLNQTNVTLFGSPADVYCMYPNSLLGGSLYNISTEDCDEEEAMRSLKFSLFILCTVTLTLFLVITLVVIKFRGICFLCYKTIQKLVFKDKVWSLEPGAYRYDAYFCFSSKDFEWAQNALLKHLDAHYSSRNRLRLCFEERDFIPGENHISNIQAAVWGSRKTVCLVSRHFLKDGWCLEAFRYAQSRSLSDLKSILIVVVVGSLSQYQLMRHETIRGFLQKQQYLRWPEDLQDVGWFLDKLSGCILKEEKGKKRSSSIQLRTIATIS

As for “Mouse C5a (from UniProt P06684 679-755) (ligand)”, in experiment [1], the intracellular cAMP in P. gingivalis-stimulated mouse macrophages is over 3 fold.

B1: C5a receptor (C5aR; CD88), mouse, on peritoneal macrophages (receptor, UniProt P30993 1-351, looked up)
chain: MDPIDNSSFEINYDHYGTMDPNIPADGIHLPKRQPGDVAALIIYSVVFLVGVPGNALVVWVTAFEARRAVNAIWFLNLAVADLLSCLALPVLFTTVLNHNYWYFDATACIVLPSLILLNMYASILLLATISADRFLLVFKPIWCQKVRGTGLAWMACGVAWVLALLLTIPSFVYREAYKDFYSEHTVCGINYGGGSFPKEKAVAILRLMVGFVLPLLTLNICYTFLLLRTWSRKATRSTKTLKVVMAVVICFFIFWLPYQVTGVMIAWLPPSSPTLKRVEKLNSLCVSLAYINCCVNPIIYVMAGQGFHGRLLRSLPSIIRNALSEDSVGRDSKTFTPSTTDTSTRKSQAV
notes: whole, on cells; In FRET it was detected with a dye-labelled mouse-specific monoclonal antibody (clone 20/70); also called complement C5a receptor
Consider B1, for which the binding result in experiment [2] is “no binding”; in experiment [3], “binds”.
